Results published in patent publication US9011842.
“And” between values parts separate entries of the source, which are not always exact repeats. Equal values may be shown once.

Target: T1, 33-mer peptide fragment of α-gliadin, LQLQPFPQPQLPYPQPQLPYPQPQLPYPQPQPF (SEQ ID NO:1)
T1 chain: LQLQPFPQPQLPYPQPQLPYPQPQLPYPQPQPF

B1: proteinase K (protein)
chain: AAQTNAPWGLARISSTSPGTSTYYYDESAGQGSCVYVIDTGIEASHPEFEGRAQMVKTYYYSSRDGNGHGTHCAGTVGSRTYGVAKKTQLFGVKVLDDNGSGQYSTIIAGMDFVASDKNNRNCPKGVVASLSLGGGYSSSVNSAAARLQSSGVMVAVAAGNNNADARNYSPASEPSVCTVGASDRYDRRSSFSNYGSVLDIFGPGTSILSTWIGGSTRSISGTSMATPHVAGLAAYLMTLGKTTAASACRYIADTANKGDLSNIPFGTVNLLAYNNYQA
  hydrolysis of the 33-mer peptide (HPLC-MS), 15 hours, SIF pH 6.8: at intestinal conditions (pH≈6.8), proteinase K did not hydrolyze most of the 33-mer peptide

B2: Neutral protease II (protein)
chain: TEVTDCKGDAESSLTTALSNAAKLANQAAEAAESGDESKFEEYFKTTDQQTRTTVAERLRAVAKEAGSTSGGSTTYHCNDPYGYCEPNVLAYTLPSKNEIANCDIYYSELPPLAQKCHAQDQATTTLHEFTHAPGVYQPGTEDLGYGYDAATQLSAQDALNNADSYALYANAIELKC
  degradation of the 33-mer peptide (ELISA of intact 33-mer), 0.1 mg/ml enzyme, SIF pH 6.8: NP I and NP II each exhibited a limited ability to degrade the 33-mer peptide
  percent of the 33-mer peptide degraded (ELISA), 60 min, SIF pH 6.8: NP II alone degraded about 20% to about 30% of the 33-mer peptide

B3: Oryzin (protein)
chain: GLTTQKSAPWGLGSISHKGQQSTDYIYDTSAGEGTYAYVVDSGVNVDHEEFEGRASKAYNAAGGQHVDSIGHGTHVSGTIAGKTYGIAKKASILSVKVFQGESSSTSVILDGFNWAANDIVSKKRTSKAAINMSLGGGYSKAFNDAVENAFEQGVLSVVAAGNENSDAGQTSPASAPDAITVAAIQKSNNRASFSNFGKVVDVFAPGQDILSAWIGSSSATNTISGTSMATPHIVGLSLYLAALENLDGPAAVTKRIKELATKDVVKDVKGSPNLLAYNGNA
  degradation of the 33-mer peptide (ELISA of intact 33-mer), 0.1 mg/ml enzyme, SIF pH 6.8: Oryzin alone did not degrade the 33-mer peptide
  degradation of the 33-mer peptide (ELISA), 60 min, SIF pH 6.8, lowest enzyme concentrations: Oryzin, at the lowest concentrations, did not degrade the 33-mer peptide
  percent of the 33-mer peptide degraded (ELISA), 60 min, SIF pH 6.8, 0.4 mg/ml and 0.8 mg/ml enzyme: at higher concentrations (0.4 mg/ml and 0.8 mg/ml), Oryzin degraded about 10% to about 20% of the 33-mer peptide

B4: Carboxypeptidase Y derived from Saccharomyces cerevisiae (protein)
chain: KIKDPKILGIDPNVTQYTGYLDVEDEDKHFFFWTFESRNDPAKDPVILWLNGGPGCSSLTGLFFELGPSSIGPDLKPIGNPYSWNSNATVIFLDQPVNVGFSYSGSSGVSNTVAAGKDVYNFLELFFDQFPEYVNKGQDFHIAGESYAGHYIPVFASEILSHKDRNFNLTSVLIGNGLTDPLTQYNYYEPMACGEGGEPSVLPSEECSAMEDSLERCLGLIESCYDSQSVWSCVPATIYCNNAQLAPYQRTGRNVYDIRKDCEGGNLCYPTLQDIDDYLNQDYVKEAVGAEVDHYESCNFDINRNFLFAGDWMKPYHTAVTDLLNQDLPILVYAGDKDFICNWLGNKAWTDVLPWKYDEEFASQKVRNWTASITDEVAGEVKSYKHFTYLRVFNGGHMVPFDVPENALSMVNEWIHGGFSL
  digestion of the 33-mer peptide (HPLC-MS), in vitro gastrointestinal model with pepsin, trypsin and chymotrypsin present: GDEP-M, CPY, and the combination of GDEP-M and CPY efficiently digested the 33-mer peptide in the artificial gastrointestinal condition
  hydrolysis of the 33-mer peptide (HPLC-MS and ELISA), pH 5.0: CPY, MX-PEP, and AN-PEP hydrolyze the 33-mer peptide. AN-PEP appears to have the strongest activity against the 33-mer peptide, followed by CPY and then MX-PEP
  hydrolysis of the 33-mer peptide (HPLC-MS), 4 hours, SIF pH 6.8: CPY efficiently hydrolyzed the 33-mer peptide and residual peptides were approximately 20 amino acids in length
  hydrolysis of the 33-mer peptide (HPLC-MS), 4 hours, buffer pH 4.0 to 7.0: CPY completely hydrolyzed the 33-mer peptide at acidic pH
  percent of the 33-mer peptide digested (ELISA), in vitro gastrointestinal model with pepsin, trypsin and chymotrypsin present: CPY alone digested about 95% of the 33-mer peptide

B5: papain (protein)
chain: IPEYVDWRQKGAVTPVKNQGSCGSCWAFSAVVTIEGIIKIRTGNLNEYSEQELLDCDRRSYGCNGGYPWSALQLVAQYGIHYRNTYPYEGVQRYCRSREKGPYAAKTDGVRQVQPYNEGALLYSIANQPVSVVLEAAGKDFQLYRGGIFVGPCGNKVDHAVAAVGYGPNYILIKNSWGTGWGENGYIRIKRGTGNSYGVCGLYTSSFYPVKN
  hydrolysis of the 33-mer peptide (HPLC-MS), 1 hour, pH 4.5: Papain completely hydrolyzed the 33-mer peptide at a pH of about 4.5
